# Reference: patent US20160199440A1 (UNIVERSITY OF ROCHESTER, published 2016)
# T1: Claudin 1 (endogenous, in 16HBE human bronchial epithelial cells) (human, UniProt O95832 1-211)
# T1 sequence (looked up): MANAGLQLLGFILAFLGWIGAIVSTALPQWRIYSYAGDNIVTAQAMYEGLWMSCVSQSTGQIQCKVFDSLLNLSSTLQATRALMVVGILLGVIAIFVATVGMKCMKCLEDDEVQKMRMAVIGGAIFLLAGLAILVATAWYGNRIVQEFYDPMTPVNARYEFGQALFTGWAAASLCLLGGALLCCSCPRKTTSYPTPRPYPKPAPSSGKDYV
# Biological target: T1, Claudin 1 (endogenous, in 16HBE human …)
# Experiment: cell-based or functional assay
"enhancement of penetration of labeled Synagis antibody (168 kD), 2.4 µM peptide [fold]","enhancement of penetration of labeled Synagis antibody (168 kD), 12 µM peptide [fold]","increase in FD-40 permeability, 2.4 µM peptide [fold]","increase in FD-40 permeability, 12 µM peptide [fold]","increase in fluorescein permeability, 2.4 µM peptide [fold]","increase in fluorescein permeability, 12 µM peptide [fold]","increase in FITC-dextran 40 kDa (FD-40) permeability, 2.4 µM peptide [fold]","increase in fluorescein (0.4 kDa) permeability, 2.4 µM peptide [fold]",Binder
4.9,5.6,25.3,30.5,5.6,16.4,–,–,"H-SILTGVSTLDQSLKQLSNFSQAVSTQSSR-NH2 [Peptide 2a, scrambled peptide]"
2.5,3.2,–,16.8,–,6.7,11.2,4.1,"H-SSVSQSTGQIQSKVFDSLLNLSSTLQATR-NH2 [Peptide 1a, hCldn1 (53-81, C54,64S)]"
